This series can be described thus: soluble on expression in E. coli; label from the status in PepcDB or PDB records.
Regarding “ALYNVDAGHRAVIFDRFRGVQDIVVGEGTHFLIPWVQKPIIFDCRSRPRNVPVITGSKDLQNVNITLRILFRPVASQLPRIFTSIGEDYDERVLPSITTEILKSVVARFDAGELITQRELVSRQVSDDLTERAATFGLILDDVSLTHLTFGKEFTEAVEAKQVAQQEAERARFVVEKAEQQKKAAIISAEGDSKAAELIANSLATAGDGLIELRKLEAAEDIAYQLSRSRNITYLPAGQSVLLQLPQ”, the “soluble on expression in E. coli” value was “not soluble”.
Consider “MSDIEAVVVSDLHLGYEEEMNLHGLFLPRIQRDHITSVMDRIIERYNPQRIIINGDFKQEFSKNLPSEWTDVLYFIDRYDDRDLIFIRGNHDNYLATILSKKNIGMMDFYEDDRYFIYHGDRNMGIKKITILGHEHPSLVLRDRVGGVYKLPAFAFNFRRNVIITPSMSFFSSGTDLSQSLLSEEHFTPALKGMKPSCFRIFAITDEFGLVDFGYLDDLHSSGEQQIRDR”, for which the “soluble on expression in E. coli” value was “not soluble”.
The value for “TKDFSWNTDFTFSFYRDKWKERDENWSPNPYDMYNAPLRGYYMYLSDGLIQPGEEVSWMPGALPGQVKLKDIDGYAYNED” was “not soluble”.
With “MEGPLSKWTNMVHGWQYRWFKIENDTLLYYTSREKMLKGQQRGQIRLTGAVVGIDGENNSLFTITVEGKTFHMQGRDLRERNQWVRILENSIRASSGYAKNVSVGTTPSQHFKQRTEEANEFLKTLVEKVKALEQLKSGERAVDEKKTIDSLIAASNNLTNNVKHAIIYLQMAQARLDPNMKTEKLMFTHPDLNEKPSSRETPGTVSDSTQTSTDKPISGIQHLDHLKPQRAESYASSDEEEFYDADEELIDLDNFESEKSGQESGDSNRTSDAAIMSSDEDGYDFGDSNEDFDEIYNNAEEHDIGNVQQDHGSVLMHLLSQVSVGMDLTKVTLPTFILERRSLLEMYADFFAHPDLFIATNGNDSAEKRMIAVVRYYLNSFYAARKSGVAKKPYNAILGETFRCRYSVPNSSLSGKKTESGPWPGSDEKQLTFIAEQVSHHPPISAFYAEMPSEGISFNAHIYTKSSFLGLSIGVASIGEGILTLHNYGDEQYTITFPSGYGRSIMSTPWFEFGGKVKVECEKTGYRADIEFLTKPFFGGKPHRIQGSICRDGAKKPVLTLRGEWNGTMYAKTQNGEEYVFVDVKAKPEVKKECVPVMQQGKRESRRLWRHVTAALLRNRIQTATTSKRFIEQRQRKEAKERLESGEKWTPLLFDTTDKDGEWMYKQKFGVRKAV”, the “soluble on expression in E. coli” value was “not soluble”.
The value for “MGSDKIHHHHHHMRPDMFIGSYERSGGHGLYPAWLDSLGAISLGPPDTRIGNASFGLLDHRCGTAWFVEEQEPGAVSAWQWDDQVWTPLGRIGTGGASPCHLVRSPDGTLLAVANNDGGVAALVELDPETGALGKLAGVLRNEGGARSHAGCVRFAGDRIFIADRGLDRVLSCEYGAAGFGEVRTAFAAPRGSGPRQLLLRDDLALLACELTARLMLLRATGEGFELLDDIATDAAATPGNLAGHLAFQGDRIFVSNRGADTVASFRIDGERLRREDCWSSHGRSPRHFAMCGSYLVVTNEQDGIVCVLDIANGGRIAGTAIVPGAAFVLAMPL” was “not soluble”; that for “MVCDFSQVRLRLADDGWRGTTTRREKDDAEDVEGKVTLRLRYTKTGAMRFLSHLEMIGLFTRAVGRSRIPIRFSRGFHPHPKFSFATALSVGVESWAEYLDMELFPGADPTDIGTRLNGALPEGVRIVEASVIPPGSPSLSVIMDKVRYRVTLPPEAAVGLPELAAAFLARESVPLRREKKGRVLEHHHHHH” was “not soluble”; that for “MAHHHHHHMIICNNNVNHFWKNIKKNIRLDGRTFEDSRNVCINFLKDYGHVEISIGFTKVICKITSEIVKPHDRKLKEGILKINLDIDNFIEDNENSDNMSDECLEIKNIIDRVLKTSNIINFESLCIIPGKKVWCICINIMVIENDGNLTDACYLSAYCGLVHFKNHQVRVIKNGDIIIDKEEINYSPLSILNSPIVTTFAYYEEHDVCLIDPCLHEEEFMSSKISIALNKNGNLISLLKPGGIPLACSHIMESIEIAKKRILTILKILEDTLEEDKNIRSYLTKRNLHVKYSSAPVTIRYDNSFKLKPDISLERYTKNTLIFEDTIKKIEQYIQYNQVQECLNNMNVKLEENDQEEIETCTLKGEGNLNNPNFIDPMRNTNLLNPTDITIIKRQEFVDNHYDANNNKYNTQANKTFKKELIDFSNLLTQNHKKSNNLSNNQKDISEQHDNSQESSDDASTIRSDESSDIDFSVAINQNIKKKK” was “not soluble”.
The same measure for “MASNPNDLPDFPEHEYAATQQVGEGVINGDLYLTSASGAIQKGTNTKVTLEPATSYMKAYYAKFGNLDAAKRDPDVQPPVLDPRRATYVREATTDQNGRFDFDHIPNGTYYISSELTWSAQSDGKTITEGGTVTKLVTVSGSQPQKVLLTR”: “soluble”.
The value for “MNVSHISAVSYYFARYIQEVLEVPVGIVVSTWGGSKIEAWMSRESIKPFSSIDLSILDNDAEVKNPTATPCVLYNGKIAPLTNFAVRGFLWYQGESNRDNADLYQSLMPAFVADLRAKWGRGELPFYFVQIAPFDYEGADGTSAARLREVQLQNMKDIPNSGMVTTMDVGHPVFIHPVDKETVGNRLAYWALAQTYGMKGFGYAPPVYKSMEIQENKIYINFYNAQRGLSPMWTSLKGFEIAGEDKVFYPAFAEIETTTARLAVSSDKVSHPVAVRYAYKNYVEASIFSIHGIPAAPFRTDNWLEHHHHHH” was “not soluble”; that for “MSLCWILMASHAQAEPFKIGLLVWSDQIAGQVAMRAGLEAEAAHLQQQARDKNLPSFTLDIKLAGDGPAGVEKQIQQMQAMVDDRVDLIIVQPTDNAALSSPLQAANQAGIPVVAYDQYISGGHLSAFVTSNNYQAGFLDGEYMAHHFADDHTIQIILVEYPYVSSTIDRVDGFFDALNQYKQPYRILRSYQAVEPVQGRAVGQQILQDFPQPGSVDALFTINDGGGLAIVDELEKAGRHELFVATIDGDPNSVARIRKGSIIKIDSAQFCGPIGAEAMRAAYAILTAGKVHEHWLVPVFPITRQSVAHYPGWSGPIPEHYSNPCLTFLCREGHHHHHH” was “soluble”.
“MSLKKIDGHAHIVDTIAGFNGKGRLNALGNGYAIWDDGDLIKLIPDEYGDKAFTAEAFLKYMDANGVDKAVILQGHLNGYQNYYTHLAIKRYPERFTGAFSVDPFADNAMQIVKRHVEVLGFRAIKFEISQGGGIHGYRGQKTPFRLDTDPHVSRILTYLLDYPGFVVTVDYGNWDQISHQPDAIANLARLYTSLDFVVCHLSFPHVEHSNRLRAELNMWKNFNNIYTDISAIQDIDAPDSFPFPKSEQNVRIAKEVLGAKRIIWGTDSPWSATFNTYEELATWLENVDIFSQEELEDVMYNNAERVYFKEEHVKANRAGIDDTTKELNLYEGHHHHHH”: the “soluble on expression in E. coli” value is “soluble”.
With “FVDPLCPECWSLEPVIKKLKIRYGRFFTLRIIASASLTALNKKRKKHLLAEAWEKIASRSGMSCDGNVWFEQDQPLSSPYMAALAFKAAELQGRKAGMQFLRNMQESLFVSKKNITDENVLLEIAENTSLDLEEFKKDLHSQSAVKALQCDMKIAAEMDVSVNPTLTFFNTQHEDEGLKVPGSYSYDVYEEILFEMLGDE”, the “soluble on expression in E. coli” value was “not soluble”.
On to “MVQDWEFIVSFLKINWILMNHVTAPYSYVDVSYDNIPFVGKIPIIGKDGTSSRLGVSPFYPADGNPSNPFPPIYKARPLPLHVPEPQDVVAVPLDEEALHGEPLFPPELILPSELAAEEAAKKKALETKKPENPFADVVETNEQLDTVHWPTAVSTSEIEGEDSQGKNMVQEDEPQRSVIIDEAREKPMQPFEAAKISIGANDRPKNPFRSRRILMERF”, for which the “soluble on expression in E. coli” value is on record as “not soluble”.
The same measure for “MTTAVTQAIIDGFFDASNGDPFATLGMHETEQGIEIRTLLPDANRMVVIERESGKEITELDCVDERGFFVGVIPNCRQFFAYQLQVFWGNEAQIIEDPYRFHPMID”: “not soluble”; for “MGSDKIHHHHHHVGNLLVNLAMVLRQPTGISTYALSLLPYLRSLQPTLLSDRLYEGFDHQLISSRLCSDRGRRARLARLYWTQTQVPKLYRRLGSRLLFSPAPEAPIDRHCRSVVMVHDLRPLQLPSHSWQTYYFRWVVPKIVAQASHVLCNSEATATDLCHFYQLPAQKITPIYLGYDRQHYQPWSGKTSNYFLHIGQQFPHKNLERLIRAFAQLPTDYQLYLAGSRHASETPRLEQLVHSLGLRDRVQFLRYVDYADLPRLIGEAIALVYPSLWEGFGLPILEAMACGTPVITAHGSSLSEVGGEAVLYVDPYRIEAIAAAMRDLIDDSNLRQSLRDRGFQQASRFSWEATGKETCQVLEKFL”: “not soluble”; for “MKPSMEKVLLQIALDLSSNLSSDLHYQRLINSIHQVFPCDASALFILDNDHCLKPVAVKGLSQAVLGRCFPPQVHPRLEAILQSKHPVRFESNSDLPDPFDGLLLVDENINIEVHDCLGCSLYVDDTLVGVLTLDALEVGAFKKIDDITIETFAALAAATLHNKALIKTLQDSNQQQKSINQTLI”: “not soluble”.
The value for “MGYRRFLQLVAHEFFHLWNVKRIRPKALEQFDYEAENYTPSLWFSEGATSYYDLLLPLRAGLYGVDSFLEALGKDLSRYLTTPGRKVQPLAESSFDAWVKLYRRDAYSDNQQMSYYLKGQLVCWLLDLEIRNHQPDLEHHHHHH” was “soluble”.
With “LLLNLFNFRNFKDLFRNDINMMTVEEILYNEIKEFQASDRRAWMVIGDRYYRCENDILNRRIVRHTESGDIEDRSKANNRLAHGFVKNLVDEKIGYLLTKDYSLKCDNKEYIEKVKNVLGKYFQYTLTRLGYEASNKGIAWLQVYINEQGKFGMMIIPAEQCVPLWKDNTHTELYGMIRYYVQTVYEGKEKKQITRVEYYTDKEVYFYVLDNDHLIPDIEQYEGGPILHYKKGEEGRSWGKVPFIAWKNNHLEYPDVKFIKSLVDAYDKSRSEIDNFIEETKNLIYVLKGYGGENLSDFMKDLNYYRAIKIDDPEHGGVDTLTPKIDIQAAKEHFEQLKRDINEFGQGVPKDLDKYGNSPSGTALKFLYSGLDLKCNHLEVEFRQSFNQLLYFVNRYLAENGQGNYENENVELIFNRDIQINETETINNCVNSKGIISDETILANHPWVSDVEEELKQIEKERKSEEPPMFGEGDEE”, the “soluble on expression in E. coli” value is on record as “soluble”.
The same measure for “LPLCDSLIIWLQTFKTASPCQDVKQLTNGVTMAQVLHQIDVAWFSESWLSRIKDDVGDNWRIKASNLKKVLHGITSYYHEFLGQQISEELIPDLNQITECADPVELGRLLQLILGCAVNCEKKQEHIKNIMTLEESVQHVVMTAIQELMSK”: “soluble”; for “MGSDKIHHHHHHMPSWFTNVQLGFDMATSLTIVGAAVTWVIREKKQAEAEKVRGINQQVRSTSLKKVQDVLFEMEDKFSVLINETQTYENMIDNRVRKVNDQLDFSRLNLAIKRDDQFLIKAIDRLQAIREELGQFYELIQVRRYSLIPLLDAIEEGDKYIGVFQQNIDEVGDAYNQVTSGNVSLLKELEAVISMLNKQFGDELVDVSDEVKKELFQKISTDETFMKPIQSIIYDEDYFYWVQRFVPAGREDDYLEKVVRPSKIEDKELCSEVMVHFILALIGKNHELISQVLRTASGSVMKARIECKDILISLSAISHKLVMDNNGETLEKVIAKYESEEYFGRNVTIR”: “not soluble”.

The values are drawn from the DeepSol protein solubility set.
